Measured values from IntAct's records for PubMed 27918561.

B1: Negative regulator of P-body association (Homo sapiens), A0A0U1RRE5 (parent)
chain: MGDQPCASGRSTLPPGNAREAKPPKKRCLLAPRWDYPEGTPNGGSTTLPSAPPPASAGLKSHPPPPEK
partner: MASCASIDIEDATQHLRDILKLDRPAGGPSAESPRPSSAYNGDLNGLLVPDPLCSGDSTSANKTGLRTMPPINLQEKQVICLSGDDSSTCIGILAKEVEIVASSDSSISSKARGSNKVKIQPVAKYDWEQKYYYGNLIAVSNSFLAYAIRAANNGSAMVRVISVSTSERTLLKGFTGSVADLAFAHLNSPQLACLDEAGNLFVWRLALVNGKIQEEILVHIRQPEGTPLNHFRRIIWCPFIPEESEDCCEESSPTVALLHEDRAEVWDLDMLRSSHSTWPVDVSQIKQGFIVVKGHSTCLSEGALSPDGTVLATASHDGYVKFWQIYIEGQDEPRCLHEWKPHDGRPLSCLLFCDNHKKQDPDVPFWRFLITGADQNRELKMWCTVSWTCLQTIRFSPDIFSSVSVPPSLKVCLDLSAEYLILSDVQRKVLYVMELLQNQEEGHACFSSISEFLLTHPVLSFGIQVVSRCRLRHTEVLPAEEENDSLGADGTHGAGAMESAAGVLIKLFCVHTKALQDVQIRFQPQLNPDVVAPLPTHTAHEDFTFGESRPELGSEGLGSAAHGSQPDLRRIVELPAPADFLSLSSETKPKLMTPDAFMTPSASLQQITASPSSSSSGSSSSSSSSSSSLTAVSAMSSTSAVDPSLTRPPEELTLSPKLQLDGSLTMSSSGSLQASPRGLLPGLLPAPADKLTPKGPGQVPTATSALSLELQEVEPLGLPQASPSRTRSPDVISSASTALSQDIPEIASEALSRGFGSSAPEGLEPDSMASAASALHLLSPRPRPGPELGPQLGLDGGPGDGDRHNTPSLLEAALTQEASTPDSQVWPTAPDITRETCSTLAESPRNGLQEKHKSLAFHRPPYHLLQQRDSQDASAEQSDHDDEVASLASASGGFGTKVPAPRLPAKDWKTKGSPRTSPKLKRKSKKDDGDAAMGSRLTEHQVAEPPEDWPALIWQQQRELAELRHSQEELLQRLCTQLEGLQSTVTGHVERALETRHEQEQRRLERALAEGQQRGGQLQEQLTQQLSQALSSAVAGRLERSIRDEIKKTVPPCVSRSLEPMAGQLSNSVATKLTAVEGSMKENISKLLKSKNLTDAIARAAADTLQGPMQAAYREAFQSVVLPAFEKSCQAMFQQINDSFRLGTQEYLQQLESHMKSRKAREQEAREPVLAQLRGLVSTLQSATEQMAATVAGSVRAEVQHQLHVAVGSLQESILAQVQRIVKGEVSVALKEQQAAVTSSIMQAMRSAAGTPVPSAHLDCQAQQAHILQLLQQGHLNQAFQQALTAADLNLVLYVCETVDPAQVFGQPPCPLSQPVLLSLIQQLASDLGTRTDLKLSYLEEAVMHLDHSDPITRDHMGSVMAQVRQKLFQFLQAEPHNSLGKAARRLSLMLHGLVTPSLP

Variants of: B1
Conditions: with edc4_human EDC4, Q6P2E9

Variant	effect of a mutation on the interaction
K26A	with no effect
P32A	with no effect
K22A	with no effect
W34A	disrupting interaction strength
C28A	with no effect
G39A	with no effect
R27A	with no effect
L29A	with no effect

Further lines, results first:

effect of a mutation on the interaction	Variant
with no effect	P41A
with no effect	E38A
with no effect	P23A
with no effect	P24A
with no effect	K25A
with no effect	R33A
disrupting interaction strength	L30A
with no effect	Y36A
with no effect	T40A
with no effect	D35A
with no effect	P37A
